Results from patent publication US7037674.

Test system: cytochrome c

Sequence of cytochrome P-450 reductase purified from P. somniferum cell suspension cultures (chain, as listed by the source): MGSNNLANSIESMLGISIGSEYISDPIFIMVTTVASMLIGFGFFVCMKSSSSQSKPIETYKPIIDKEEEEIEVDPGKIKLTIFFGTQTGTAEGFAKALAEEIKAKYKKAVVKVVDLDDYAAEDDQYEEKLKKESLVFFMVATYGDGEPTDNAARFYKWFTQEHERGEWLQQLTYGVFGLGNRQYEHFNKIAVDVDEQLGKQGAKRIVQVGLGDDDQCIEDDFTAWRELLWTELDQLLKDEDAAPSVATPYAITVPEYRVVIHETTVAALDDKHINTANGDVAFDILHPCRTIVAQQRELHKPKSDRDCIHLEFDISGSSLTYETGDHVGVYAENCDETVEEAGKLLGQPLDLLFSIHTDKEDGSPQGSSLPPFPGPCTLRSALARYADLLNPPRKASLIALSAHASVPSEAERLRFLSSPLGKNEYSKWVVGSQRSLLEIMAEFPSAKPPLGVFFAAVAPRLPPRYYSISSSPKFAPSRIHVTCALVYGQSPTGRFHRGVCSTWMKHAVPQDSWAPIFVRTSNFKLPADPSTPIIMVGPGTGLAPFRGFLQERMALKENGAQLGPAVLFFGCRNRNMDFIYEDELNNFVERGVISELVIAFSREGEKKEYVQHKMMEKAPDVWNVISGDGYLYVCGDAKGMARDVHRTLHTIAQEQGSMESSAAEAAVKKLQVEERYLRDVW

cytochrome P-450 reductase purified from P. somniferum cell suspension cultures
Km (cytochrome c reduction, enzyme activity): The Km value for cytochrome c was 8.3 µM
